# Measured values reported in the DeepSol protein solubility set.
# Experiment: soluble on expression in E. coli; label from the status in PepcDB or PDB records
row,Sequence,soluble on expression in E. coli
1,MGSDKIHHHHHHDDHQGIIPLPPVENAFQEKYPDAKNPVFEIEGNYYVVDFNNGGSETTAWFTDQGIWMMEKIDISFAQLPAAVSTAFKQSFYSNWTVDDTYAINRLNMGIVYKIEAEQSNSEVDLYYSQYGNLIKAVDDEINNDAPIVIPKEVSNLMEITFANAELLDIQQNSLGYELDMIDNQIYKVAQLNKDYRWQSTTWAMSEQEVPQIVMQGFESSAYASDKVQSIYTLLNANGTFYLFKVSHNGQDKTITFDVFGNIV,not soluble
2,MGSDKIHHHHHHMKRINCFIPYGKIEATRQTVAQLAESSLVSQIYLITDDPHAKAIYPCNLIRTENIWSTKTLREIAGYASAHYTLIYTKTEELQLGMYALERFVAIADDTRSGMVYSDYYEKKEGKLNPHPVIDYQKGSLRDDFNFGSLLLYRSSTLQNAIASMDTEYTFAGLYDLRLKVSQNAPLTHINEYLYTEVENDLRKSGEKMFDYVDPKNRSVQIEMEAACTDHLKMIGGYLPPHFKPVRFDEQTFQTEASVIIPVRNRVRTIEDAIRSVLRQEASFPFNLIIIDNHSTDGTSERIQAIAATDLRIIHIQPERDDLGIGGCWNIGIHHSACGKFAIQLDSDDVYSDEHTLRKIVEAFYEQRCAMVVGTYRMTDFDMRTIPPGIIDHKEWTPENGRNNALRINGLGAPRAFYTPLLRKLNLPNTSYGEDYALGLRISREYPIGRIYDVLYLCRRWEDNSDASLDVVKMNNHNIYKDKIRTWELEARLNMERQ,not soluble
3,MKSIPGDIPQYLLIKAQLQARIQSGALKSGDKLPSERELCAIFNTTRITIRESLAQLESSGLIWRADRRGWFVTPERLWLDPTQNTNFHKLCREQGREPKTALLSGVLTTVPVEVMEPLQLQPFDQIYLLTRLRYADGRAVCYCENHCLPARVPELLQYDLNGSLTEVYESHYNLVYTSMHLSFYPTAMPAQAAQALGVMEGRPALLLRRLNYDQHGRVLDLDIEYWRHDSLRIEVDTH,not soluble
4,MAHHHHHHSLIKSMTGFSRVEKVSGPYQFRVEMKSLNSKGLNIINQLPGYLSMKEIELNNLVQEYVSRGKVQTRVQVKFLEPPKVLEIDKNVVRAYYSMLDEIVGELSLPEPVKLSDLLNFREVFRIELSDEEIENIWNHLVPILREALEKLVEERKKEGQKIGADLKRILEDLSSRVEEIEKISDQLPALYREKIKEEVEKILPQDVSVKEDILENHVAFMATKADIREEITRLRSHIKRALELIESDEPVGMNLDFLGQEMLRELNTILSKSISGEITSLALEGKVLVSQFREQIQNVEEG,soluble
5,MEQLTVQGLVRLMGAGANLVCVVTDNERRTEAIVGQATARLKGAGSPLVWTCTDGFTRDGTVVPGTVDPVAALDHALAHPAPLMTLFKDLSWFWSDNPYVIRKLKEFAVRARGKAAVVLARDESVPAELREDIVVLGQGLPGIGEITAFLGQLKEREPVLAAACAGHPGLMDHLVVAAQGLDLVDIERGVRALRNVPEAAGHEMVRSLFETKQAVIRRSGIMEFVANDTAPEQVGGMENLKAWMERREQAFGLESIASGAALPKGILMMGIAGCGKSLFVKAIAARWRLPLIRLDMAAVYDGSFGTPESSLRKAFRTAEAVAPCVLWIDEIESGISVQGFKAEGGPASRLLGSFLTWMQEKKAPVFVAATANAIEMLPAEIIRKGRFDEVFYVGLPDAGAREDIFRIHLERQKADSARFDVPLLAGSTKGFSGAEIEQAVLSAAFEARADRRTLTQQDVIVAVSRTVPLSVTMAEQIKKIEAWAFKRAVPAAGKF,not soluble
6,MHHHHHHSSGRENLYFQGDLQATPGMFITSKKGHLSEMYQRVKKLGSGAYGEVLLCRDKVTHVERAIKIIRKTSVSTSSNSKLLEEVAVLKLLDHPNIMKLYDFFEDKRNYYLVMECYKGGELFDEIIHRMKFNEVDAAVIIKQVLSGVTYLHKHNIVHRDLKPENLLLESKEKDALIKIVDFGLSAVFENQKKMKERLGTAYYIAPEVLRKKYDEKCDVWSIGVILFILLAGYPPFGGQTDQEILRKVEKGKYTFDSPEWKNVSEGAKDLIKQMLQFDSQRRISAQQALEHPWIKEMCSKKESGIELPSLANAIENMRKFQNSQKLAQAALLYMASKLTSQEETKELTDIFRHIDKNGDGQLDRQELIDGYSKLSGEEVAVFDLPQIESEVDAILGAADFDRNGYIDYSEFVTVAMDRKSLLSKDKLESAFQKFDQDGNGKISVDELASVFGLDHLESKTWKEMISGIDSNNDGDVDFEEFCKMIQKLCSNNE,soluble
7,MNNELPDDIELLKAMLRKQQSRLRQYACQVAGYEQEIERLKAQLDRLRRMLFGQSSEKKRHKLENQIRQAEKRLSELENRLNTARNLLEDASSVTDSPDTSPPSENPIASKPESPGRKSSRKPLPAELPRETHRLLPAETSCPACGGVLKEMGETISEQLDIINTAFKVIETIRPKLACSRCDVIGTTSS,not soluble
8,MSLKITFTDKALDYLKRREILNKILILIADDGGGKYSIKGGGCAIGSHFSIIYVDKVDPDYPIKLENDQGINIYTSKYDTTMMGPNLVVDYANASLNLKSDEGLLDGGVDIGNGAELIKAQKNVKMTGVEWRCEGHHHHHH,soluble
9,MAVDVPGIISPKTAEAASQLTDGIGGRAYLNSNGAILVTKIQLPSSTQVSNGTAYIYSGFSGGTESDIGFQYSDKYNVWKPYMKVGSKGQDQVQYLEGGSQFTNTKGFRPGSTVQLTIYKNLNGNTRATYWGTNNAGYNGRLISEISKTNVGSISKWKALATVATTGSRQSIKSNFSTSFTNITIDNKAITPVIDTQDFAKVTVSGNSVSLSVVKNLEHHHHHH,soluble
10,SADCILVNSQFTAAVFKETFKSLSHIDPDVLYPSLNVTSFDSVVPEKLDDLVPKGKKFLLLSINRYERKKNLTLALEALVQLRGRLTSQDWERVHLIVAGGYDERVLENVEHYQELKKMVQQSDLGQYVTFLRSFSDKQKISLLHSCTCVLYTPSNEHFGIVPLEAMYMQCPVIAVNSGGPLESIDHSVTGFLCEPDPVHFSEAIEKFIREPSLKATMGLAGRARVKEKFSPEAFTEQLYRYVTKLLV,soluble
11,MNRTLYTLLFHLGLPLVALRLWWRARQAPAYAKRIGERFSLSLPEVPPGGIWVHAVSVGESIAAAPMVRALLERHPQLPVTVTCMTPTGSERIRALFGEQVRHCYLPYDLPWAAARFLDRVRPRLAVIMETELWPNHIHACAVRGIPVALANARLSERSARGYARFAGLTRPMLAELSWIAVQTEAEAERFRRLGARPECVSVTGSIKFDLRIDPQLPLAAAALREEWDATARPLWIAASTHAGEDEIVLAAHRRLLETRPDALLILVPRHPERFAGVHELCRREGFATVRRSGGEPVARATQVLLGDTMGELLFLYALADIAFVGGSLVPNGGHNLLEPAALGKPVFAGPHLFNFLDIAAQLRDAGALLEVTDAGELCDGLARLWAQPEVATAMATAGEKVLRNNQGALERLLAGLARLLGRGG,not soluble
12,LTGPQLAVVGSRQPSPYALRAMRRLLPQVVRQQVCLVSGLAQGVDTLAHQAALAHRGKTIAVIGTGLDHCYPAGNRDLMTELAHHHLVISEYPWGTAGARHHFPERNRIIAGLSQSTLVVEAARHSGSLITANIALQENRNVLAVPGSLDNPNSVGTNELILAGAKPILNSEHIIEEVLVDKRL,not soluble
13,MGHHHHHHSHMDAIHKQKSLQFKKTMDAKKNYEQKCRDKDEAEQAVSRSANLVNPKQQEKLFVKLATSKTAVEDSDKAYMLHIGTLDKVREEWQSEHIKACEAFEAQECERINFFRNALWLHVNQLSQQCVTSDEMYEQVRKSLEMCSIQRDIEYFVNQRKTGQIPPAPIMHENFYSSQKNAVPAGKATGPNLARRGPLPIPKSSPDDPNYSLVDDYSLLYQ,not soluble
14,MEKVQSISNGTNSISYTLTRSRRKTVGIRITENGEVKVAAPLNIPDRQLKDIILKKLPWILRKQEELRKICEESRLENKFADGETFLYLGKEYTLRIAKGVLPEGVNLEENYIVVAADETKVSVNGPQYIRNVLKNFYVNQFVDIAKTRMDFFSPKIGVCPRKLTVREQKTRWGSCSSKGNISLNWKLVMAPMEVIDYVIVHELCHMKEMNHSKNYWNIVKSIIPDFELRRKWLKDNGHRLLM,soluble
15,MGHHHHHHSHMEWKVKIRSDGTRYITKRPVRDRILKERALKIKEERSGMTTDDDTMSEMKMGRYWSKEERKQHLVRAKEQRRRREFMMRSRLECLKESPQSGSEGKKEINIIELSHKKMMKKRNKKILDNWMTIQELMTHGAKSPDGTRVHNAFLSVTTV,not soluble
16,MLVAERQQKIVEIVNMRSSIRVSELSDIFSVTEETIRRDLEKLEKEHKLSRSHGGAVSIQQKESEIHFSEREITNVIEKKAIAHEAAKYVKSGDRIILDASTTAWYMAKILPDIELTVITNSMKAAIELSNKENISVISTGGILLEKSLSFAGPLAERSLETYHVNKTFLSCKGFDVHNGMSDSNEWQALLKKRMIERSDQTILMADSSKWGNREFSHIASLQDVSRLITDSGLDPASVKALEDKKVKVTAVPLSKRGLEHHHHHH,soluble
17,MAHHHHHHMLTSENPAERAGQAGQAIRPPPSPVPDGTRPSDSSRGDSSVSPLSTTGISSSSALDAPIVQSTQPSEKGLRSETISLGTALPNEQPKERSESKAKQGSSTSEEVAESPDDSGDAVEKEKKGDVGPKATTSLSSTTSNPPVTQTTPRASSAEPPPTETELQTGEETSTENVTITKRNNTTTPGDSDGSTAVSHTTSPLLLLLVVVECAAAAAVVAA,soluble
18,MGSDKIHHHHHHKDPVINDLKDSEGNNISFTLNAPNNSSYTLMPENASSIIDIFTCEQPDYGFAAGVTYTVQVCEGGTEFEKFESLPTTGSGEKVLIKTFELNDAMNNLGMVNPTVAYNVDFRLKAFINDSVPELYSNTVNMAITPYSGARTQVYFVGDIFDNGWNNNDPSMRIFADDDVNNMLFTYTGFVKAGSAFKIIQTPGDWGIQWGYDSDGALSNDGGSGNIEGFTQDGYYTITLDLAGNKYSIEPYTGATTEYKQISLIGDFNDWGGDLDLQQASYDKHIWIGEKIEIPSDGGLKLRADHDWAVSFGGSNSLWNDKQGQFAKFDGGDNVKVSAGTYFIKFNDLTKHIILLAE,not soluble
19,MGSDKIHHHHHHMSIIDLTKLEQKVATMWDSILTNSPFIHEVLDGKATKALYAIYMTETYHYTKHNAKNQALVGIMGKDLPGKYLSFCFHHAHEEAGHELMALSDIASIGFDREDVLSSKPLPATETLIAYLYWISATGNPVQRLGYSYWAENVYGYIDPVLKAIQSTLDLTPQSMKFFIAHSKIDAKHAEEVNEMLHEVCKTQEDVDSVVAVMENSLVLTARILDDVWKEYQLFQSGASDRYAFLRDNA,not soluble
20,DYNGQAKCMLEKVGNWNFDIFLFDRLTNGNSLVSLTFHLFSLHGLIEYFHLDMMKLRRFLVMIQEDYHSQNPYHNAVHAADVTQAMHCYLKEPKLANSVTPWDILLSLIAAATHDLDHPGVNQPFLIKTNHYLATLYKNTSVLENHHWRSAVGLLRESGLFSHLPLESRQQMETQIGALILATDISRQNEYLSLFRSHLDRGDLCLEDTRHRHLVLQMALKCADICNPCRTWELSKQWSEKVTEEFFHQGDIEKKYHLGVSPLCDRHTESIANIQIGFMTYLVEPLFTEWARFSNTRLSQTMLGHVGLNKASWKGLQR,soluble
21,MGKTFTVGSLKHAVRSSERPISAAPPKPDGPSAVRPSVIQIEQKGKTFTVQPAPGVSLLDAALGQGVLLDHKCKKGTCGRCMVTVLAGAHLLAPKTRREREKTDQPAKRLACQAQIQ,not soluble
